Reference: patent US20260166139A1 (AKESO BIOPHARMA, published 2026)
Values joined by “and” are separate entries in the source; they are usually repeats but may differ in a detail not shown here. Equal values may be shown once.

T1: CTLA4 antigen on the surface of 293F-CTLA4 host cells (UniProt P16410 36-223, limits assumed)
T1 construct: whole, on cells
T1 sequence (looked up): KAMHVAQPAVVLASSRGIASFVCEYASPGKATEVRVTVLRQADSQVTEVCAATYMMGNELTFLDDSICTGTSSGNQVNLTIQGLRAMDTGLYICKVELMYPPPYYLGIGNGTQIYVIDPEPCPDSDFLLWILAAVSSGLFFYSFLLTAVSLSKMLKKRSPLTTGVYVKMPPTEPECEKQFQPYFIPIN

T2: human CTLA4 (human, UniProt P16410 36-161, limits assumed)
T2 construct: also called human CTLA4 antigen; CTLA4 protein
T2 sequence (looked up): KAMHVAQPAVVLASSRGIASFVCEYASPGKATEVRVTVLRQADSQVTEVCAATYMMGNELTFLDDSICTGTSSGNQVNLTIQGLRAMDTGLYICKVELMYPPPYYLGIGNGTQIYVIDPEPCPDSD

T3: CTLA4 antigen (NCBI Gene ID: 1493) obtained by TEV protease cleavage of CTLA4-mFc (Homo sapiens (Human), UniProt P16410 37-161)
T3 construct: also called the antigen CTLA4
T3 sequence: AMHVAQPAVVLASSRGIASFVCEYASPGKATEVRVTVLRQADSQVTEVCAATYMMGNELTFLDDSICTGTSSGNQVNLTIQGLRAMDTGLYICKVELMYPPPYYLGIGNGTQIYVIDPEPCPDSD


How the values were obtained:
CTLA4-mFc [1] = target: T4, CTLA4-mFc; assay: competitive ELISA, CTLA4-mFc coated, competitor B7/2-His; antibody 1 µg/ml diluted 1:3
T4 construct: also called CTLA4ECD-mFc fusion protein; CTLA4 antigen
Description: (§1) After incubation at 37° C. for 40 minutes, the enzyme conjugated secondary antibody was added. After incubation at 37° C. for 30 minutes, the absorbance at 450 nm was detected on an ELISA plate reader.

CTLA4-mFc [2] = target: T4, CTLA4-mFc; assay: competitive ELISA, competitor B7-2; control run with 8D2(Re)
CTLA4-mFc [3] = target: T4, CTLA4-mFc; assay: competitive ELISA, competitor B7-2; control run with 8D2H2L15
CTLA4-mFc [4] = target: T4, CTLA4-mFc; assay: competitive ELISA, competitor B7-2; control run with 8D2H1L1
CTLA4-mFc [5] = target: T4, CTLA4-mFc; assay: competitive ELISA, competitor B7-1; control run with 8D2H2L2
CTLA4-mFc [6] = target: T4, CTLA4-mFc; assay: competitive ELISA, competitor B7-1; control run with 8D2H2L15
CTLA4-mFc [7] = target: T4, CTLA4-mFc; assay: competitive ELISA, competitor B7-1; control run with 8D2H3L3
CTLA4-mFc [8] = target: T4, CTLA4-mFc; assay: competitive ELISA, competitor B7-2; control run with 8D2H2L17
CTLA4-mFc [9] = target: T4, CTLA4-mFc; assay: competitive ELISA, competitor B7-2; control run with 8D2H3L3
CTLA4-mFc [10] = target: T4, CTLA4-mFc; assay: competitive ELISA, competitor B7-2; control run with 8D2
CTLA4-mFc [11] = target: T4, CTLA4-mFc; assay: competitive ELISA, CTLA4-mFc coated, competitor B7/2-His; antibody 1 µg/ml
Description: as §1

CTLA4-mFc [12] = target: T4, CTLA4-mFc; assay: competitive ELISA, competitor B7-1; control run with 8D2H1L1
CTLA4-mFc [13] = target: T4, CTLA4-mFc; assay: competitive ELISA, competitor B7-2; control run with 8D2H2L2
CTLA4-mFc [14] = target: T4, CTLA4-mFc; assay: competitive ELISA, competitor B7-1; control run with 8D2H2L17
CTLA4-mFc [15] = target: T4, CTLA4-mFc; assay: competitive ELISA, competitor B7-1
Description: as §1
Target sequence in this assay (chain, as listed by the source limits assumed): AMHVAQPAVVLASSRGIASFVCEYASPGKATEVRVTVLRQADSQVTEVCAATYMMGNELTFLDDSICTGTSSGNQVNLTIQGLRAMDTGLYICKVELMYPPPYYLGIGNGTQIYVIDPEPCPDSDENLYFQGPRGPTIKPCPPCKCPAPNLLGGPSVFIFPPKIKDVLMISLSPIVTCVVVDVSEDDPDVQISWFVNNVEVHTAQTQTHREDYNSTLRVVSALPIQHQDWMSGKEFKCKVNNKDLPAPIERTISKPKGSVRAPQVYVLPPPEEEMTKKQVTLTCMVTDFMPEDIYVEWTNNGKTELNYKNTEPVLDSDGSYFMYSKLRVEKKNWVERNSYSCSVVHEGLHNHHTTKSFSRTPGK

CTLA4-mFc [16] = target: T4, CTLA4-mFc; assay: competitive ELISA, CTLA4-mFc coated, competitor B7/2-His; antibody 3 µg/ml diluted 1:27
Description: as §1

CTLA4-mFc [17] = target: T4, CTLA4-mFc; assay: competitive ELISA, competitor B7-2
Description: as §1
Target sequence in this assay (chain, as listed by the source limits assumed): as above

monkey CTLA4-hFc [18] = target: T5, monkey CTLA4-hFc (monkey); assay: ELISA, coat monkey CTLA4-hFc 0.25 ug/ml; antibody 0 (blank)
T5 construct: also called monkey CTLA4 antigen
Description: (§2) The ELISA plate was coated with CTLA4 at 4° C. over night. […] The enzyme conjugated secondary antibody was added for incubation for 30 min. Then, the absorbance at 450 nm was determined on an ELISA plate reader.

[19] = target: T1, CTLA4 antigen on the surface of …; assay: flow cytometry, 293F-CTLA4 cells; antibody 0.001 nM
Description: (§3) After addition of 300 μL PBS, the fluorescent signal was detected using the FITC channel on the flow cytometer.

[20] = target: T1, CTLA4 antigen on the surface of …; assay: flow cytometry, 293F-CTLA4 cells; antibody 10 nM
Description: as §3

human CTLA4 [21] = target: T2, human CTLA4; assay: ELISA on coated CTLA4, source Human
Description: as §2

[22] = target: T1, CTLA4 antigen on the surface of …; assay: flow cytometry, 293F-CTLA4 cells; antibody 25 nM
Description: as §3

[23] = target: T3, CTLA4 antigen (NCBI Gene ID: 1493) …; assay: BLI (Fortebio), antibody on AR2G sensor, CTLA4 in solution
Description: 2. […] After equilibration in PBST, the CTLA4 antigen was added for binding. […] Dissociation occurred in PBST.

[24] = target: T1, CTLA4 antigen on the surface of …; assay: flow cytometry, 293F-CTLA4 cells; antibody 0.01 nM
Description: as §3

[25] = target: T1, CTLA4 antigen on the surface of …; assay: flow cytometry, 293F-CTLA4 cells; antibody 0.1 nM
Description: as §3

[26] = target: T1, CTLA4 antigen on the surface of …; assay: flow cytometry, 293F-CTLA4 cells
Description: as §3

[27] = target: T1, CTLA4 antigen on the surface of …; assay: flow cytometry, 293F-CTLA4 cells; antibody 5 nM
Description: as §3

[28] = target: T1, CTLA4 antigen on the surface of …; assay: flow cytometry, 293F-CTLA4 cells; antibody 1 nM
Description: as §3

monkey CTLA4-hFc [29] = target: T5, monkey CTLA4-hFc; assay: ELISA on coated CTLA4, source Monkey
Description: as §2

human CTLA4 [30] = target: T2, human CTLA4; assay: ELISA, coat human CTLA4 0.5 ug/ml; antibody 0 (blank)
Description: as §2

CTLA4-mFc [31] = target: T4, CTLA4-mFc; assay: competitive ELISA, B7/1-hFc coated (competitor), CTLA4-mFc added; antibody 0 (no antibody)
Description: as §1

CTLA4-mFc [32] = target: T4, CTLA4-mFc; assay: competitive ELISA, B7/1-hFc coated (competitor), CTLA4-mFc added; antibody 5 µg/ml diluted 1:9
Description: as §1

absorbance at 450 nm (CTLA4-mFc [1]) | absorbance at 450 nm (CTLA4-mFc [11]) | EC50 (CTLA4-mFc [15]) [nM] | EC50 (CTLA4-mFc [17]) [nM] | fluorescence intensity [19] | fluorescence intensity [20] | fluorescence intensity [22] | Kd [23] [nM] | koff [23] [s⁻¹] | kon [23] [M⁻¹ s⁻¹] | fluorescence intensity [24] | fluorescence intensity [25] | EC50 [26] [nM] | fluorescence intensity [27] | fluorescence intensity [28] | Binder | further results
– | – | 0.44 | 0.208 | – | – | – | – | – | – | – | – | – | – | – | monoclonal antibody 8D2 (antibody, V domains shown, Mouse antibody purified from hybridoma supernatant; also called mAb 8D2; antibody secreted by the CTLA4-8D2 hybridoma cell line LT001) VH: EVKLDETGGGLVQPGRPMKLSCVASGFTFSDNWMNWVRQSPEKGLEWLAQIRNKPYNYETYYSDSVKGRFTISRDDSKSSVYLQMNNLRGEDMGIYYCTAQFAYWGQGTLVTVSA VL: DIQMTQSPASLSASVGETVTITCGTSENIYGGLNWYQRKQGKSPQLLIFGATNLADGMSSRFSGSGSGRQYSLKISSLHPDDVATYYCQNVLRSPFTFGSGTKLEI | absorbance at 450 nm (CTLA4-mFc [16]): 0.675
– | – | – | – | 10.8 | 944 | 1170 | 0.608 | 0.000207 | 340000 | 10.8 | 21.2 | 5.06 | 559 | 103 | humanized antibody 8D2H1L1 (antibody, V domains shown) VH: EVQLVESGGGLVQPGGSMRLSCAASGFTFSDNWMNWVRQAPGKGLEWLAQIRNKPYNYETYYSDSVKGRFTISRDDSKNSVYLQMNSLKTEDTGVYYCTAQFAYWGQGTLVTVSS VL: DIQMTQSPSSLSASVGDRVTITCRTSENIYGGLNWYQRKQGKSPKLLIYGATNLASGMSSRFSGSGSGTDYTLKISSLHPDDVATYYCQNVLRSPFTFGSGTKLEIK | absorbance at 450 nm (human CTLA4 [30]): 0.067

Further lines, the binder ahead of its results:

Binder | absorbance at 450 nm (CTLA4-mFc [1]) | absorbance at 450 nm (CTLA4-mFc [11]) | EC50 (CTLA4-mFc [15]) [nM] | EC50 (CTLA4-mFc [17]) [nM] | fluorescence intensity [19] | fluorescence intensity [20] | fluorescence intensity [22] | Kd [23] [nM] | koff [23] [s⁻¹] | kon [23] [M⁻¹ s⁻¹] | fluorescence intensity [24] | fluorescence intensity [25] | EC50 [26] [nM] | fluorescence intensity [27] | fluorescence intensity [28] | further results
control antibody 10D1 (antibody, V domains shown) VH: QVQLVESGGGVVQPGRSLRLSCAASGFTFSSYTMHWVRQAPGKGLEWVTFISYDGNNKYYADSVKGRFTISRDNSKNTLYLQMNSLRAEDTAIYYCARTGWLGPFDYWGQGTLVTVSS VL: not shown | 0.07 | 0.05 | – | – | – | – | – | – | – | – | – | – | – | – | – | EC50 (CTLA4-mFc [2]): 0.464 nM; EC50 (CTLA4-mFc [3]): 0.629 nM; EC50 (CTLA4-mFc [4]): 0.464 nM; EC50 (CTLA4-mFc [5]): 5.15 nM; EC50 (CTLA4-mFc [6]): 4.59 nM; EC50 (CTLA4-mFc [7]): 5.15 nM; EC50 (CTLA4-mFc [8]): 0.629 nM; EC50 (CTLA4-mFc [9]): 2.06 nM; EC50 (CTLA4-mFc [10]): 0.464 nM; EC50 (CTLA4-mFc [12]): 1.91 nM; EC50 (CTLA4-mFc [13]): 2.06 nM; EC50 (CTLA4-mFc [14]): 4.59 nM
humanized antibody 8D2H2L2 (antibody, V domains shown, also called 8D2H2L2(20150327); 8D2H2L2(20140422)) VH: EVQLVESGGGLVQPGGSMRLSCAASGFTFSDNWMNWVRQAPGKGLEWLAQIRNKPYNYETYYSASVKGRFTISRDDSKNSVYLQMNSLKTEDTGVYYCTAQFAYWGQGTLVTVSS VL: DIQMTQSPSSLSASVGDRVTITCRTSENIYGGLNWYQRKPGKSPKLLIYGATNLASGVSSRFSGSGSGTDYTLTISSLQPEDVATYYCQNVLRSPFTFGSGTKLEIK | – | – | – | – | 10.8 | 1160 | 1130 | 0.955 | 0.000388 | 407000 | 32.5 | 124 | 4.37 | 972 | 625 | absorbance at 450 nm (monkey CTLA4-hFc [18]): 0.048; EC50 (human CTLA4 [21]): 0.12 nM and 0.082 nM and 0.118 nM; EC50 (monkey CTLA4-hFc [29]): 0.227 nM
humanized antibody 8D2H2L17 (antibody, V domains shown) VH: EVQLVESGGGLVQPGGSMRLSCAASGFTFSDNWMNWVRQAPGKGLEWLAQIRNKPYNYETYYSASVKGRFTISRDDSKNSVYLQMNSLKTEDTGVYYCTAQFAYWGQGTLVTVSS VL: DIQMTQSPSSLSASVGDRVTITCRTSENIYGGLNWYQRKPGKSPKLLIYGATNLASGVSSRFSGSGSGTDYTLTISSLQPEDVATYYCQNVLSSRPGFGSGTKLEIK | 0.05 | 0.05 | 1.79 | 0.296 | – | – | – | – | – | – | – | – | – | – | – | absorbance at 450 nm (CTLA4-mFc [31]): 1.18; absorbance at 450 nm (CTLA4-mFc [32]): 0.08
